From patent US20230357378A1 (NEURACLE SCIENCE, published 2023)
Blank lines part the entries; values can stand above or below the binder they belong to.

Assays:
[1] = target: T1, Peptide F4-BSA (C-terminal Cys conjugated to BSA); assay: Western blot, 300 ng antigen per well, anti-rabbit IgG (Fc specific)-HRP 1:4000
T1 construct: BSA-conjugated human FAM19A5 peptide fragment F4, lane 6; size printed as 106 kDa
T1 peptide: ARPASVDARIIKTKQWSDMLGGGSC

[2] = target: T2, Peptide F6-BSA (C-terminal Cys conjugated to BSA); assay: as above
T2 construct: BSA-conjugated human FAM19A5 peptide fragment F6, lane 8; size printed as 103 kDa
T2 peptide: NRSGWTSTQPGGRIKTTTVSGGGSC

[3] = target: T3, Peptide F1-BSA (C-terminal Cys conjugated to BSA); assay: as above
T3 construct: BSA-conjugated human FAM19A5 peptide fragment F1, lane 3; size printed as 105 kDa
T3 peptide: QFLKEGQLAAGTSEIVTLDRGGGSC

[4] = target: FAM19A1-flag; assay: immunoblot of vector and flag-tagged FAM19A1 to FAM19A5 samples

binding result [1]: no binding (tested: 2 ug/ml)
binding result [2]: no binding (tested: 2 ug/ml)
binding result [3]: no binding (tested: 2 ug/ml)
B1: 1-65-scFv-rabbit-Fc-SSS (Fc fusion)
VH: AVTLDESGGGLQTPGGALSLVCKASGFTFSSYQMGWVRQAPGKGLEWVGVINKSGSDTSYGSAVKGRATISRDNGQSTVRLQLNNLRAEDTGTYFCAKGSASYITAATIDAWGHGTEVIVSS
VL: ALTQPSSVSANPGETVKITCSGGGSSGYGYGWYQQKSPSSAPLTVIYWNDKRPSDIPSRFSGSKSGSTHTLTITGVQAEDEAVYFCGNDDYSSDSGYVGVFGAGTTLTVL
notes: scFv of 1-65 fused to rabbit Fc ('SSS'), used as primary antibody in the Western blot; also called anti-FAM19A5 antibody 1-65; monoclonal antibody clone 1-65

binding result [4]: no binding
B2: chimeric anti-FAM19A5-IgG2/4 monoclonal antibody (1-65) (antibody, V domains shown)
VH: B1 VH
VL: B1 VL
notes: also called anti-FAM19A5-IgG2/4 antibody
